Measured values from patent US20180037651A1 (published 2018).

T1: human GPRC5D (UniProt Q9NZD1 1-345)
T1 chain: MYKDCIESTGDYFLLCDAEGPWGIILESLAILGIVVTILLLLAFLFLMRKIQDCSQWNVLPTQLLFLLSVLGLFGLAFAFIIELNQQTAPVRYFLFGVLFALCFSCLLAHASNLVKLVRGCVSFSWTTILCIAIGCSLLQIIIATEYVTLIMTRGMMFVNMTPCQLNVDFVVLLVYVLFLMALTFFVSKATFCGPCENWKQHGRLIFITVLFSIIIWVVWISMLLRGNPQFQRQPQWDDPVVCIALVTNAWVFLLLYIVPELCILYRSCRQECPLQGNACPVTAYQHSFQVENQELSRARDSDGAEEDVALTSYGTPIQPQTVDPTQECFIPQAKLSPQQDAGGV

B1: GC5B599 (antibody, V domains shown)
VH: EVQLVQSGAEVKKPGESLKISCKGSGYSFTSYFIGWVRQMPGKGLEWMGIIYPGKSDTRYSPSFQGQVTISADKSISTAYLQWSSLKASDTAMYYCARVYSFGGRHKALFDYWGQGTLVTVSS
VL: EIVLTQSPATLSLSPGERATLSCRASQSVSSYLAWYQQKPGQAPRLLIYDASNRATGIPARFSGSGSGTDFTLTISSLEPEDFAVYYCQQRSNWPLTFGQGTKVEIK
B2: GC5B603 (antibody, V domains shown)
VH: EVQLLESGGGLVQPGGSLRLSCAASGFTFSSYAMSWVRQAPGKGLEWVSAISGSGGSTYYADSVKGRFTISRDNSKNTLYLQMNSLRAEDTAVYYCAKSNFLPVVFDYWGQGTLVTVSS
VL: EIVLTQSPATLSLSPGERATLSCRASQSVRKSLAWYQQKPGQAPRLLIYTASNRATGIPARFSGSGSGTDFTLTISSLEPEDFAVYYCQQYFRAPITFGQGTKVEIKK

Biological target: T1, human GPRC5D
Assay: FACS cell binding; MM.1R cells

Binder	EC50 [nM]
B1	0.1
B2	1.67
